Common to all, as to details: EMSA: Pierce EMSA kit conditions, 15 min, 7.5% polyacrylamide gel at room temperature; footprinting: 20 mM Tris-HCl pH 7.5, 80 mM NaCl, 1 mM EDTA, 100 ug/ml …
(Mobility shift assays separate free from complexed probe on a gel.)

The target in data set [1] is T1, Fis (Escherichia coli) (UniProt P0A6R3).
T1 sequence: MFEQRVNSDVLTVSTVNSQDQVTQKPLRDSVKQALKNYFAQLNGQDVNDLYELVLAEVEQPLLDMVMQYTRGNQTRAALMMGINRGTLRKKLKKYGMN
The data set is described as follows: EMSA.

In data set [2] the target is T2, Lrp (UniProt P0ACJ0).
T2 sequence: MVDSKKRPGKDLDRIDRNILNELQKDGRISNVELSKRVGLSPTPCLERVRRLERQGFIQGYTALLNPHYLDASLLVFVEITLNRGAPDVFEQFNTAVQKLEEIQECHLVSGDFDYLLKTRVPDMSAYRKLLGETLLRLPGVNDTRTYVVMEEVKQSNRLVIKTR
Nature of the data set: EMSA.

Data set [3] has as its target T2, Lrp. Nature of the data set: competition EMSA.

In the case of “CCACCTCATGCAATATAAACATCTATAAATAAAGATAACAATAGAATATTAAGGGGTTAGCTAAACTGAAAAAGTTTGTCCGCGATGCTTTCCTCTATGAGTCAAAATGGCCCCAAATGTTTCATCTTTTGGGGG (double strand) [fimS 135 bp probe, Fis site disrupted]”, the binding result in data set [1] and in data set [2] was “binds more weakly” throughout.
On to “CCCCCAAAAGATGAAACATTTGGGGCCATTTTGACTCATAGAGGAAAGCATCGCGGACAAACTTTTTCAGTTTATTTGTTGGCTTAATATTCTATTGTTATCTTTATTTATAGATGTTTATATTGCATGAGGTGG (double strand) [fimS 135 bp probe (wild type)]”, for which the binding entry in data set [1], in data set [2] and in data set [3] was “binds” in each case.

These data come from paper PMC9993118.
